In patent US20230174596A1 (published 2023):
Substitutions are numbered along the chain they refer to.

T1: hVEGF-A (8-109) (human, UniProt P15692 214-315)
T1 construct: residue numbers count on mature VEGF-A; dimer
T1 sequence (looked up): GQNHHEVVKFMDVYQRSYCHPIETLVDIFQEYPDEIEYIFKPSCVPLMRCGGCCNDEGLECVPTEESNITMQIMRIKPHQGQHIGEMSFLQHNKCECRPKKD

T2: hVEGF-A Y21A (human, UniProt P15692 34-135)
T2 chain: T1 sequence (looked up) with Y14A

T3: hVEGF-A K48A (human, UniProt P15692 34-135)
T3 chain: T1 sequence (looked up) with K41A

T4: hVEGF-A Q89A (human, UniProt P15692 34-135)
T4 chain: T1 sequence (looked up) with Q82A

T5: human VEGF-A (human), P15692
T5 chain: T1 sequence (looked up)


How the values were obtained:
Experiment in all cases: SPR
[1] = molecular target: T1, hVEGF-A (8-109)
Experimental: Depending on the format of the assay either a streptavidin sensor (SA) or a dextran-coated (CM5) sensor was utilized as described below.
Reaction was then quenched by addition of 10 molar excess of Glycine pH 8.0 and the sample was buffer exchanged into PBS using an Amicon 0.5 mL 3000 MWCO ultra-centrifugal filters (EMD Millipore). The biotinylation state of the protein was verified by LC-MS analysis. Biotinylated VEGF-A was then captured on the surface until a resonance unit (RU) signal of about −0.400. For immobilization of VEGF-A on CM5 sensor, the surface was first activated with a mixture of N-ethyl-N′-(3-dimethylaminopropyl)carbodiimide hydrochloride and N-hydroxysuccinimide (EDC/NHS) according to the supplier instructions. VEGF-A was then diluted into coupling buffer (0.1 M Acetate Buffer, pH 5.0) and injected until the signal reached about −0.400 RU followed by a wash with 1 M ethanolamine pH 8.0 to quench remaining activated sites.

[2] = molecular target: T2, hVEGF-A Y21A
[3] = molecular target: T3, hVEGF-A K48A
[4] = molecular target: T4, hVEGF-A Q89A
[5] = molecular target: T5, human VEGF-A (human), P15692

Binder	Kd [1]	Kd [2]	Kd [3]	Kd [4]	Kd [5]
GCDVMQPYWGCGRDMDCLAGCVCHWYNSCG (designed binder, also called L2.9.63.27) [VEGF_CKP9.63.27]	1.4 nM				
GCDVMQPYWGCGENFLCLAGCVCHWYNSCG (designed binder, also called L2.9.63.1) [VEGF_CKP9.63.1]	5.8 nM				
GCDVMQPYWGCGESLSCLAGCVCHWYNSCG (designed binder, also called L2.9.63.69) [VEGF_CKP9.63.69]	6.9 nM				
GCNIMLPFWGCGRDFECLAGCVCQYYQSCG (designed binder) [VEGF_CKP9.54.90]		3.5 nM	0.19 nM	8.8 nM	
GCNIMLPFWGCKQDSDCLAGCVCQYYQSCG (designed binder, also called EM54) [VEGF_CKP9.54]		317 nM	22 nM	1880 nM	
GCNIMLPFWGCGRDFECLAGCVCQYYQSCG (designed binder, modifications not checked) [VEGF_CKP9.54.90-Alkyn]					0.49 nM
GCDVMQPYWGCKQDSDCLAGCVCHWYNSCG (designed binder, also called EM63) [VEGF_CKP9.63]		585 nM	28.4 nM	2000 nM	
GCDVMQPYWGCGPDIDCLAGCVCHWYNSCG (designed binder, also called L2.9.63.12) [VEGF_CKP9.63.12]		9.84 nM	0.33 nM	36.5 nM	
